According to the DeepSol protein solubility set:

Test: soluble on expression in E. coli; label from the status in PepcDB or PDB records

Row | Sequence | soluble on expression in E. coli
1 | MTEQPAVAAPYDVLFEPVQIGPFTTKNRFYQVPHCNGMGYRDPSAQASMRKIKAEGGWSAVCTEQVEIHATSDIAPFIELRIWDDQDLPALKRIADAIHEGGGLAGIELAHNGMNAPNQLSRETPLGPGHLPVAPDTIAPIQARAMTKQDIDDLRRWHRNAVRRSIEAGYDIVYVYGAHGYSGVHHFLSKRYNQRTDEYGGSLENRMRLLRELLEDTLDECAGRAAVACRITVEEEIDGGITREDIEGVLRELGELPDLWDFAMGSWEGDSVTSRFAPEGRQEEFVAGLKKLTTKPVVGVGRFTSPDAMVRQIKAGILDLIGAARPSIADPFLPNKIRDGRLNLIRECIGCNICVSGDLTMSPIRCTQNPSMGEEWRRGWHPERIRAKESDARVLVVGAGPSGLEAARALGVRGYDVVLAEAGRDLGGRVTQESALPGLSAWGRVKEYREAVLAELPNVEIYRESPMTGDDIVEFGFEHVITATGATWRTDGVARFHTTALPIAEGMQVLGPDDLFAGRLPDGKKVVVYDDDHYYLGGVVAELLAQKGYEVSIVTPGAQVSSWTNNTFEVNRIQRRLIENGVARVTDHAVVAVGAGGVTVRDTYASIERELECDAVVMVTARLPREELYLDLVARRDAGEIASVRGIGDAWAPGTIAAAVWSGRRAAEEFDAVLPSNDEVPFRREVTQLA | soluble
2 | MAHHHHHHMADVDEWRGASFKQEEDHSEATTSLLEKINATTIPVLLRSTNKSLQDLVDELLTLEKIARLGGDALSTQRLAVEVIRVYRVQGDYAKMLLVLEMLMRKRGQTKMTQSAMIAECAVMISDASLPKESRREVLERVVHLTDSRIHVELEHARFAIDLAKLMESEGQKRAACDLLSGLHVETITNMPRAEKLDALNCLIRLCLELEDYEHTPLVSRRINHRALARAESREAKLTYFELMRHYYTQRKSYFNVARCWYETYLTETEEGAKLAALSSMAVHYLIAEHATPKALEDLAECTAFSPATYFAERNAAIQGITTKLQKQLEDIPQLQYLLQRFTSIELIREKVAREVETLCANHPQLAGHEDRQLLLRSRCSEHDLLVVSRFYRRLRLDRLAQLVGLTPEHTEEFLMMMVASKTLYAKMDRVDGLVVFEAKKNATEVINGWNEAVERSVALLDKASHLIVKERMLHNISAARAQQAVTL | not soluble
3 | MGSDKIHHHHHHMRETPFRLLLDARACRKKGSAAILQRQRERLVEMVTYARTCSPYYRQLYQGLPARITDPRLLPVTTKAALMAHFDDWVTDPAVTLEGTQSFVADPSLLGEKFLNRYTAATTSGTTGTRGLFLLDTRTLAVSKALTFRMLSSWLTPADLMGIIRGRGRIAMVVATGGHFASAAAAAALRKGPARHSVRVFPVQTPIPDLVAQLNSFRPALLAPYASTGRLLASEQEAGRLTIQPVAVILSAEGLPAGEYARISGAFGAKVRQGYAATECPFLSYSCQEGWLHVNSDWAILEPVDANHEPVPPGQPSHTVLLSNLANRIQPILRYDLGDSVTARTDPCRCGDPTPAIHVQGRNAELLTLQGNRLAVAVTPLTLSTALDRVQGLSKGQIIQTGPQSLSLRLQPAAGADPENVWESARSEITRALTSHGLGNVTITRDAGPPLLTPGGKHRTVVPLPP | not soluble
4 | MGSDKIHHHHHHMFGLIGHLTSLEHAQAVAQELGYPEYADQGLDFWCSAPPQIVDSIIVTSVTGQQIEGRYVESCFLPEMLASRRIKAATRKILNAMAHAQKHGINITALGGFSSIIFENFKLEQFSQVRNIKLEFERFTTGNTHTAYIICKQVEEASKQLGINLSNATVAVCGATGDIGSAVTRWLDARTDVQELLLIARDQERLKELQGELGRGKIMGLTEALPQADVVVWVASMPRGVEIDPTTLKQPCLLIDGGYPKNLATKIQYPGVHVLNGGIVEHSLDIDWKIMKIVNMDVPARQLFACFAESMLLEFEKLYTNFSWGRNQITVDKMEQIGRVSVKHGFRPLLV | not soluble
5 | MVEIIDTTFRDAHQSLIATRMSTKDMLPIAEKMDKIGFYSMEVWGGATFDVSLRFLREDPWERLKLLREHIRKTKLQMLLRGQNLVGYRHYPDDVVEKFVELAYKNGIDIFRVFDALNDVRNMKTAIKKAKEIGAEVQGAICYTTGPIFTIDYYLQKVDELIELDVDYITIKDMAGLADPQTAYELVKEIKERYGIKVNFHTHATSGLAVATYLKAVEAGVDYIDTSIYPLAGGTAQPAVQTMYYALPKGKRPKLNIKLIHEISKYLTNLLEKKYDHLLTKKAIHGDPNVLIHQIPGGMYSNLIKQLSELKALDKLEEVLEEVPRVREDLGYPPLVTPTSQIVGVQAVLNVLFGRYKQVTKETKDYVRGLYGRPPGKIKEEIKKLILGDEEPINVRPADLLEPMLEKAKKELKEKGYLEKEEDVVTYCLFPQVALEFFELRRQGRLRPVEEKPKGKPIKIYINGKEFEVFVEGIEFEPPKPKPQVQAIPSQPPKREVVAPSGSVVSAPMPGKVLRVLVRVGDRVRVGQGLLVLEAMKMENEIPSPRDGVVKRILVKEGEAVDTGQPLIELE | soluble
6 | MGTRCAVTPELRFVLAFPDVYEVGMSHLGLQILYGVLNTLDGVAAERAYAPWPDREAQLRAEGIPLATLESGTSLDRADIVGFTLQYELSYTNILNMLDLAGIPLLASERDERHPLIIGGGPCACNPEPLADFFDAFLLGDGEEAVIEIAEAFRAWKRAGGARSGLLERLAGIAGVYVPSFFAVRYGDNNRIAAVEPLRPDYGPVKRRFLAELEPAAYPTAPVVPFLKTIHDRVSVEISRGCTRGCRFCQAGYLYRPVRERSPEKILALVEETLRATGYDEISLLSLSTGDYGCLTPLLTELMARYASERIAVSLPSMRVGSLNDELVEAIRTVRKTGFTLAPEAGSERLRRVINKGISEEDLLRNAFEAYSHGWRLIKLYFMIGLPGETEEDLHGIVELARKVKMEGRRAGSGGEVNVSVSTFVPKAHTPFQWEPQIPVGEILEKQGLLRRELRARKLVFKWHDAPLSFMEGVFARGDRRLGAALRRAWELGCRFDGWGDRFDEAAWRTAFEETGIDPAFYHRRREPDEVLPWGHLDFGVTREFLLRELELSRQGAATEDCRTGRCTGCGVCDFSQVRLRLADDGLEHHHHHH | not soluble
7 | MARPLVPSSQKALLLELKGLQEEPVEGFRVTLVDEGDLYNWEVAIFGPPNTYYEGGYFKARLKFPIDYPYSPPAFRFLTKMWHPNIYETGDVCISILHPPVDDPQSGELPSERWNPTQNVRTILLSVISLLNEPNTFSPANVDASVMYRKWKESKGKDREYTDIIRKQVLGTKVDAERDGVKVPTTLAEYCVKTKAPAPDEGSDLFYDDYYEDGEVEEEADSCFGDDEDDSGTEESLEHHHHHH | not soluble
8 | MSSDVAGVKKSSSSSSSTSSPFMFSMLLMFSRSISSTIKISANRILLCCTSSFSTTSGFFKIESNRLTSRSSSGIFSRTACNRSCGNCFSISAVLSFCVAPLCCKSTGRFSSAIYLLIFRSTR | soluble
9 | MKLPVMSPEHSAQLQAFEAKILSNHAKIEAWFRTQWSVHRPPFYGSVDIRNAGYKISSIDMNLFPGGFNNLNPNFIPLAAVAAQDAVQRACETAKSVLIIPENHTRNTFYLQNVYALGEILRSAGYEVRLGSLNPEVTEPTEFETALGDKILLEPLLRTRDRVHLADGFSPCVVLLNNDLSAGIPDILKGISQTVLPPLHGGWTTRRKTNHFGAYNQVTAEFAKLIGIDEWQINPYFEKIGGLDFQGREGEDALAEAVERVLAKIQAKYDESGITDKPFVIVKADAGTYGMGVMSVKSADEVRGLNRKNRNKMAKVKEGLEVSEVIVQEGIYTYETLNGAVCEPVVYMMDRFVIGGFFRVHEGRGADENLNAGGMVFVPLSNSIPTGNGDNSQEAPEACKRVFEQWDSLGMPRSEKDCDVDNEHNRLYVYGVMARLSLLAASIELEETA | soluble
10 | MGSDKIHHHHHHALSPETGSTSVAVMGRQLYEEMRLDQWVCFDAFMQGLRGSEKIDRKNKDILTLIDFSKPSTAERMVVLDIRQKRILYTSLVSHGKNSGGNYATSFSNENGSHKSSLGFYLTENTYQGRNGYSLILNGLEKGINDLAKQRAIVIHGASYSDPSVAASSGRLGRSFGCPALPVSVSKPIINTIKNGTLLFIYANDKNYLTQSSILSTQQENDIFHEKSYRKVL | not soluble
11 | MAHHHHHHMGTLEAQTQGPGSMENKEKIYEGKAKIIFATLNPLEVIQHFKDEITAFNNKKAAIIHEKGILNNYISSFLMKKLIDKGIKTHFISLLNQREQLVKKITIIPIEVVIRNLAAGNFSKRFQIADGTPFKSPIIEFYYKNDELSDPMVSEGHILSFQWLTNQELEKIKILSLKINNILSELFFNVGIKLVDFKLEFGKLHNDEQSDLFLADEISPDTCRLWDISTNKRLDKDRYRLNLGNVIEGYREVAHKLNAIPNL | soluble
12 | MAEIYEEGDESVDVNKESEVKTELGKGGGDENVLQFLDSLDGYLTLMDSVNSKLREGWFDLASARHSMGTLRINSTLLDLKYHPASSTLQVTDQDVESLGSVPHFALSKWASKGGSRKGKDFSTDTDSEIGSPLSPQLRHRGVSEEKPSAKDETVLAADEEIKKERAKSLSVFGGLVSPKLRGAQQSFETALETLVEIANMRASMISAFERITEK | soluble
13 | IPIPSALEARLDAYVALLQQWQAKTNLVAPSTLPQLWTRHVADSLQLVSLMPHARRWLDFGSGGGFPGVVLACAMADVGGHVTLVERIAKKAAFLREALRVAGAPGTVILADIGDNVDRFPQALDCITARAVAPLHQLIGFAEPLMTPGTTKALFLKGQDVDAELTETTKYWKFQPKLHASVTGGQGWIVEIDHIER | not soluble
14 | MGSDKIHHHHHHMTWHEVNDVIVITLPEIFDMNANLGYLTREKNECMYEIENNIITKVIAIGEIRSLVQVSVINNKQMIVQFLNDSRPVEQWKREEIVKYIHEWFDLDNDLTPFYEMAKADPLLKMPARKFYGLRVIGIPDLFEALCWGVLGQQINLAFAYSLKKQFVEAFGDSIEWNGKKYWVFPPYERIARLTPTDLADIKMTVKKSEYIIGIARLMASGELSREKLMKMNFKDAEKNLIKIRGIGPWTANYVLMRCLRFPTAFPIDDVGLIHSIKILRNMNRKPTKDEILEISVPWKEWQSYATFYLWRVLY | not soluble
15 | MRKKLKAVLFDMDGVLFNSMPYHSEAWHQVMKTHGLDLSREEAYMHEGRTGASTINIVFQRELGKEATQEEIESIYHEKSILFNSYPEAERMPGAWELLQKVKSEGLTPMVVTGSGQLSLLERLEHNFPGMFHKELMVTAFDVKYGKPNPEPYLMALKKGGLKADEAVVIENAPLGVEAGHKAGIFTIAVNTGPLDGQVLLDAGADLLFPSMQTLCDSWDTIML | not soluble
16 | MIDKSSKRDKEVEPLKDNISILIMGVDGSEMRKSQYGEAVRTDALLLATINKDDKSVKLVSIPRDSRVYIPSRKKLDKITHAHVFGGVESTRDTVERFLNVPVDYYVKFNFESFVQIVDSLGGIDIDVPVTFTEQDSKDQAGMIHLEKGYQHLNGEQALALARTRKIDSDAMRGQRQQLVIEAIAKKAMSVQSISKMGSLLDAVDKNMKTNLTFDDMLAITKNMAGSNLEMEKMQVEGTDKRIGGIYYYIPNEKNVKDISKKLNEHLGVLEHHHHHH | soluble
17 | MGSDKIHHHHHHLAKNNPISIPVSELRLGLTVKLPLSWTEHPFLINRIELKEQAQIEMIRGLKVQHVLVLAGAELLDEDVPKEEVPIEDDGFDEDMPERDVKREARVAIRKSQKRFLDCVNDSRSLVGKLGSDPEGAYRLSATLVEQMLEHLFEQEAAYLALVSAGEQGASVTQHGISVAVLSLMIAKSMDMPKKDMRDIALGALLHDIGKLRVPDNIRRKRGPLTTQEINFMNQHPNYGHEMLSRSGLFPEEVLHIIRHHHEFIDGTGFPGGLNGKKIPRTTQIVTLANDFEDQMTSHSIASPQVALGYLFKHRVGKHDEALIATLVKVLRHLSARYSGASHRRFFGKGDDDHPGSQAASGVGLQRRRRRPRPQNLDE | not soluble
